Measured values published in US20240218067A1 (ONCOC4, published 2024).

T1: human Siglec-10 on the cell surface (human, UniProt Q96LC7 17-697)
T1 sequence (looked up): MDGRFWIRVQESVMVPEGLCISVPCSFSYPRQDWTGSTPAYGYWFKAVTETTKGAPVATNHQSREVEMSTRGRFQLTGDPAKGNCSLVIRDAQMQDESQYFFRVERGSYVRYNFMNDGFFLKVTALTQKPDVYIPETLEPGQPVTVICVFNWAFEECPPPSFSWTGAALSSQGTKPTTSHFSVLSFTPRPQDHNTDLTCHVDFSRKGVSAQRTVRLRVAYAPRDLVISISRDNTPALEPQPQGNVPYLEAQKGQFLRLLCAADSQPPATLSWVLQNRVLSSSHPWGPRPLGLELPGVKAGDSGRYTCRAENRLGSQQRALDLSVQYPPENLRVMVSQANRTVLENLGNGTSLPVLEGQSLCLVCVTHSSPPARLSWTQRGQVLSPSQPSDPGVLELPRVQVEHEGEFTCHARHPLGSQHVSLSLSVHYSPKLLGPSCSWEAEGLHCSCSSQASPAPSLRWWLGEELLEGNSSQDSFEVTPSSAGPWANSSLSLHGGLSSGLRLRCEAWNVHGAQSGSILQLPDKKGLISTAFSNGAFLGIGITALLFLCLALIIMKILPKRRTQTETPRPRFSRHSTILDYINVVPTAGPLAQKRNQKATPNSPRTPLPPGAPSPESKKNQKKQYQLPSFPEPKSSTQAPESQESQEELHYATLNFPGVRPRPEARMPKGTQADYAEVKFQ

T2: Siglec-10 (Biacore analysis) (UniProt Q96LC7 17-546, limits assumed)
T2 sequence (looked up): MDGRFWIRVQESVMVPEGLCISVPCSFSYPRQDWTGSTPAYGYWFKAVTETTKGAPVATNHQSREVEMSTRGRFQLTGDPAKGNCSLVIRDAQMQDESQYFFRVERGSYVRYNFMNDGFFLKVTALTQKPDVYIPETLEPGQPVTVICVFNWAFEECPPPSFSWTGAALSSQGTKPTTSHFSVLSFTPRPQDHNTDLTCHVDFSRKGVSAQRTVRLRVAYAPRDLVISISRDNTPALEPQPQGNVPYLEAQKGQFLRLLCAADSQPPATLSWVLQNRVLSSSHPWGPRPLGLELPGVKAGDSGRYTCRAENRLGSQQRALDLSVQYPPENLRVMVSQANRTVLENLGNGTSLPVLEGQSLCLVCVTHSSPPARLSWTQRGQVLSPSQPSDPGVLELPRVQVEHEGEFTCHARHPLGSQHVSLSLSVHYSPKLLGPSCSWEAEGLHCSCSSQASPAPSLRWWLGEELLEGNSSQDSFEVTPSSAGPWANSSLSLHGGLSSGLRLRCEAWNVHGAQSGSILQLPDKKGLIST


What was measured:
[1] = target: rhesus Siglec-10 on expi293 cells (rhesus) (UniProt F7GW74); assay: flow cytometry on live expi293 cells transfected with rhesus Siglec-10; FMO median 13039
Chain of rhesus Siglec-10 on expi293 cells (rhesus) (F7GW74 entry or part of it): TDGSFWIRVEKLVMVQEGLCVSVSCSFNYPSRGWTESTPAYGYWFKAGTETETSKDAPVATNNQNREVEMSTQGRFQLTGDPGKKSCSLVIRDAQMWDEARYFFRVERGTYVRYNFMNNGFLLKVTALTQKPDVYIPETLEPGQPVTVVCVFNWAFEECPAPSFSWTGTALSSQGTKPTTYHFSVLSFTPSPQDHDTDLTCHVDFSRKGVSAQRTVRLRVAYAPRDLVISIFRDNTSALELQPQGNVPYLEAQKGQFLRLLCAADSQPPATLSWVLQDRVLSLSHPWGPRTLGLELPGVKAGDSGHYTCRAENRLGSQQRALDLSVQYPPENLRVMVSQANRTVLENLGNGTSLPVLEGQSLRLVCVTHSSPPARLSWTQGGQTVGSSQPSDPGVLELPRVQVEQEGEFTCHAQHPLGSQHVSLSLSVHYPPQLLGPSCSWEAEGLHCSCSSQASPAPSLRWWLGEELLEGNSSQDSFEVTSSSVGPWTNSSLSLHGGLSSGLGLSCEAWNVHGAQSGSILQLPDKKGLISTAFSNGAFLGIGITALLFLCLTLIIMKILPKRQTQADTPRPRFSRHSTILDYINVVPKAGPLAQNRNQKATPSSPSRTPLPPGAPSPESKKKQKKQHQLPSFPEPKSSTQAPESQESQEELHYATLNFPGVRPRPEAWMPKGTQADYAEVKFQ

[2] = target: cynomolgus Siglec-10 on the cell surface (cynomolgus); assay: flow cytometry on live expi293 cells transfected with cynomolgus Siglec-10; FMO median 13824
Chain of cynomolgus Siglec-10 on the cell surface (cynomolgus) (chain, as listed by the source): as the sequence (F7GW74 entry or part of it) above, with S4N, K11E, M14T, H306R, G486R, D568E, S645F counted along it

[3] = target: T1, human Siglec-10 on the cell surface; assay: flow cytometry, human PBMC, monocytes, fluorescently labeled ONC-841 (upper left quadrant)
[4] = target: T1, human Siglec-10 on the cell surface; assay: cell-based or functional assay
[5] = target: cynomolgus Siglec-10 on the cell surface (cynomolgus); assay: flow cytometry, cynomolgus PBMC, CD14hi monocytes, without excess hIgG
[6] = target: human Siglec-10 extracellular domain recombinant protein (His or Fc tag) (human) (UniProt Q96LC7); assay: ELISA: Siglec-10 His coated, biotinylated ONC-841, avidin-HRP
[7] = target: T1, human Siglec-10 on the cell surface; assay: flow cytometry, human PBMC, B cells, fluorescently labeled ONC-841 (upper left quadrant)
[8] = target: recombinant His-tagged human Siglec-10 (ACROBiosystems) (human) (UniProt Q96LC7); assay: ELISA: His-tagged human Siglec-10 coated, ONC-841 detected with goat anti-human antibody
[9] = target: T1, human Siglec-10 on the cell surface; assay: flow cytometry on live expi293 cells transfected with human Siglec-10; FMO median 14075
[10] = target: marmoset Siglec-10 on expi293 cells (marmoset) (UniProt F6WZ94); assay: flow cytometry on live expi293 cells transfected with marmoset Siglec-10; FMO median 13762
Chain of marmoset Siglec-10 on expi293 cells (marmoset) (F6WZ94 entry or part of it): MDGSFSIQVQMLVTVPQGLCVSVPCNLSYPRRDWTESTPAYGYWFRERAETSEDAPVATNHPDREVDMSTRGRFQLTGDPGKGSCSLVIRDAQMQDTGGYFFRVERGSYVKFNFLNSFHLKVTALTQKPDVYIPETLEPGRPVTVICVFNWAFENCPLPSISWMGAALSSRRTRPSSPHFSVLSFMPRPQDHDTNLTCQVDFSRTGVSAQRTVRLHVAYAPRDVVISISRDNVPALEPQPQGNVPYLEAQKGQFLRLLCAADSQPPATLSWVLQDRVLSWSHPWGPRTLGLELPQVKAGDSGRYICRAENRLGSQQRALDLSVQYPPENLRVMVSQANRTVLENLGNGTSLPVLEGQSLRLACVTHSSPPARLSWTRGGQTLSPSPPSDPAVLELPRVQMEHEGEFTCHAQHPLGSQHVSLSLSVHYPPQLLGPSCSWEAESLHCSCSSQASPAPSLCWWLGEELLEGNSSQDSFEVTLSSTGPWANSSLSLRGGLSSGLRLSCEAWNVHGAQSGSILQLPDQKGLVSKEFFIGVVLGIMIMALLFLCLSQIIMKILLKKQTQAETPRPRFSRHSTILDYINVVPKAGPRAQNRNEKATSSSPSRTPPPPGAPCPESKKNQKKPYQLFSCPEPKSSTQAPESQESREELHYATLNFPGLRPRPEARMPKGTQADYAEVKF

[11] = target: T1, human Siglec-10 on the cell surface; assay: flow cytometry, human PBMC, CD14hi monocytes, without excess hIgG; FMO median 1244
[12] = target: human Siglec-10 extracellular domain recombinant protein (His or Fc tag) (human) (UniProt Q96LC7); assay: ELISA, Siglec protein coated, biotinylated ONC-841, avidin-HRP
[13] = target: T2, Siglec-10 (Biacore analysis); assay: Biacore
[14] = target: T2, Siglec-10 (Biacore analysis); assay: Biacore (data from a separate experiment); data from a separate experiment
[15] = target: T1, human Siglec-10 on the cell surface; assay: flow cytometry, Jurkat cells expressing human Siglec-10

| Median : Comp-APC-A [1] | Median : Comp-APC-A [2] | % positive cells [3] [%] | EC50, ADCC reporter activity of anti-CD20 against Raji cells [4] [µg/mL] | EC50, ADCC reporter activity of cetuximab against B16 cells expressing human EGFR [4] [µg/mL] | IC50 (so in the source), ADCC reporter activity of ONC-392 against CTLA-4 expressing CHO cells [4] [µg/mL] | Median : Comp-Alexa Fluor 488-A [5] | EC50 (read off the curve) [6] [µg/mL] | % positive cells [7] [%] | EC50 (read off the curve) [8] [µg/mL] | Median : Comp-APC-A [9] | Median : Comp-APC-A [10] | Median : Comp-Alexa Fluor 488-A [11] | Kd [12] [µg/mL] | koff [13] [s⁻¹] | kon [13] [M⁻¹ s⁻¹] | ADCC EC50 [4] [µg/mL] | Kd [14] [nM] | EC50 [15] [µg/mL] | Kd [13] [nM] | Molecule |
| --- | --- | --- | --- | --- | --- | --- | --- | --- | --- | --- | --- | --- | --- | --- | --- | --- | --- | --- | --- | --- |
| 13100 | 14500 | 79 | 0.5 | 0.3 | 0.08 | 1770 | 0.02 | 51 | 0.009 | 64200 | 14200 | 7250 | 0.0225 |  |  |  |  |  |  | ONC-841 (antibody) |
|  |  |  |  |  |  |  |  |  |  |  |  |  |  | 0.000589 | 272000 | 0.153 | 2.17 | 0.242 |  | humanized 31F11 clone #21 (antibody, V domains shown, also called hu-VHv1VLv2) VH: QVTLKESGPALVKPTQTLTLTCTFSGFSLSTSGMGLSWIRQPPGKALEWLAHIYWDDDKRYNPSLKSRLTISKDTSKNQVVLTMTNMDPVDTATYYCVRGLYGNWFFDVWGQGTTVTVSS VL: DIVMTQSPATLSVSPGERATLSCKASQNVGTAVAWYQQKPGQAPRLLIYSASNRYTGVPARFSGSGSGTEFTLTISSLQSEDFAVYFCQQYSSYPLTFGGGTKVEIK |
|  |  |  |  |  |  |  |  |  |  |  |  |  |  | 0.000197 | 131000 | 0.342 |  | 0.237 | 1.5 | humanized 31F11 clone #23 (antibody, V domains shown) VH: QVTLKESGPALVKPTQTLTLTCTFSGFSLSTSGMGLSWIRQPPGKALEWLAHIYWDDDKRYNPSLKSRLTISKDTSKNQVVLTMTNMDPVDTATYYCARGLYGNWFFDVWGQGTTVTVSS VL: DIVMTQSPATLSVSPGERATLSCKASQNVGTAVAWYQQKPGQAPRLLIYSASNRYTGVPARFSGSGSGTEFTLTISSLQSEDFAVYFCQQYSSYPLTFGGGTKVEIK |
|  |  |  |  |  |  |  |  |  |  |  |  |  |  | 0.000202 | 164000 | 0.266 |  | 0.237 | 1.23 | humanized 31F11 clone #22 (antibody, V domains shown, also called hu-VHv2VLv2) VH: QVTLKESGPALVKPTQTLTLTCTFSGFSLSTSGMGLSWIRQPPGKALEWLAHIYWDDDKRYNPSLKSRLTISKDTSKNQVVLTMTNMDPVDTATYYCVRGLYGNWFFDVWGAGTTVTVSS VL: DIVMTQSPATLSVSPGERATLSCKASQNVGTAVAWYQQKPGQAPRLLIYSASNRYTGVPARFSGSGSGTEFTLTISSLQSEDFAVYFCQQYSSYPLTFGGGTKVEIK |
